Read-outs that look alike come from different tables or passages of the source. A value given as a limit tells only on which side of the number the result lay.

In assay [1] the target is integrin α4β7, P13612;P26010. The experiment in a line: steady-state binding assay on primary α4β7+/CD4+ T-cells (flow cytometry, MFI). The settings on record: read off a plot. (In general: In flow cytometry, cells or beads pass a laser one at a time.)
Assay [2] concerns the target integrin α4β7 (human (endogenous in primary CD4+ T cells)) (UniProt P13612). The experiment in a line: flow cytometry on cells; α4β7-reactivity: biotinylated gp120 on retinoic acid-cultured primary CD4+ T cells with CD4 masked by unlabeled mAb Leu3A (α4 mAb HP2/1 as specificity control); HBS with 100 µM CaCl2 and 1 mM MnCl2, on ice; Neutravidin PE; MFI of the CD45RO+/CCR5+ gate; steady state.

For assay [3] the target is unchanged. The assay is described as above. The source holds these as a separate data set.
Setting [4] is: first point, plotted at x = 0 µg gp120, parent: est. 20.

Consider 92Ug037 w.t. gp120 (subtype A) N133Q, for which the response in assay [1] (parent: est. 27) is 72 MFI. In the case of 92Ug037 w.t. gp120 (subtype A) N137Q, the response in assay [1] (parent: est. 27) is 160 MFI. The same measure, in the same setting: with “92Ug037 w.t. gp120 (subtype A) N187Q; N188Q” the figure was 540 MFI. 92Ug037N144Q gp120 (natural protein) came in with a fold increase in α4β7-reactivity over w.t. 92Ug037 in assay [2] of 20 fold. In assay [2], 92Ug037N355Q gp120 (natural protein) came in with a fold increase in α4β7-reactivity over w.t. 92Ug037 of 27 fold. On the same count and under the same terms, with 92Ug037N385Q gp120 (natural protein) the figure was 8 fold. As to 93MW959 w.t. gp120 (subtype C) N139Q, the response in assay [1] (parent: est. 300) was determined as 500 MFI. The same measure, in the same setting: with 93MW959 w.t. gp120 (subtype C) N145Q the figure was 550 MFI.

As to AN1 N204Q gp120, the fold increase in α4β7-reactivity over AN1 w.t. expressed in CHO-S cells in assay [2] was found to be 23 fold. AN1 NN140/143QQ gp120: the fold increase in α4β7-reactivity over AN1 w.t. expressed in CHO-S cells in assay [2] was 25 fold. Same read-out and setting: with AN1 NN140/143QQ,N204Q gp120 the figure was 96 fold. With “AN1 w.t. gp120 expressed in CHO lec1 cells”, the fold α4β7-reactivity over CHO S AN1 w.t. gp120 in assay [3] was greater than 100 fold; in assay [2] it was 100 fold. Turning to “QA203M41 chimeric gp120 (V1/V2 of QA203M41 in a Q23 backbone) N22Q; N25Q”, the response in assay [1] (setting [4]) stood at 300 MFI; in assay [1] (gp120 0.5 µg, parent: est. 20), 270 MFI; in assay [1] (gp120 1 µg, parent: est. 25), 580 MFI; in assay [1] (gp120 1 µg, parent: est. 45), 600 MFI; in assay [1] (gp120 2 µg, parent: est. 30), 1400 MFI; in assay [1] (gp120 2 µg, parent: est. 110), 1300 MFI. In addition, the response was determined as 1700 MFI in assay [1] (gp120 4 µg, parent: est. 50) and 2000 MFI in assay [1] (gp120 4 µg, parent: est. 230). With “QA203M41 chimeric gp120 (V1/V2 of QA203M41 in a Q23 backbone) N22Q; N25Q; N66Q; N67Q”, the response was determined as 200 MFI in assay [1] (setting [4]); 410 MFI in assay [1] (gp120 1 µg, parent: est. 25); 750 MFI in assay [1] (gp120 2 µg, parent: est. 30); 1300 MFI in assay [1] (gp120 4 µg, parent: est. 50). Regarding “QA203M41 chimeric gp120 (V1/V2 of QA203M41 in a Q23 backbone) N66Q; N67Q”, the response in assay [1] (setting [4]) worked out at 50 MFI; in assay [1] (gp120 2 µg, parent: est. 30), 180 MFI; in assay [1] (gp120 4 µg, parent: est. 50) it was 280 MFI. With “Z205F.ENV1.1 0Mfounder gp120 (natural protein)”, in assay [2], the fold bound to α4β7 over bound to CD4 stood at 37 fold; the fold α4β7-reactivity over the 0-month escape gp120 is 8 fold; the fold α4β7-reactivity over the 8- and 38-month escape gp120s was greater than 17 fold.

(Values after PMC3044691.)
